Legend:
Experiment in all cases: purified protein
Settings in all cases: pH 7.5; 30.0 °C
[1] = tested on: C=C(O[C@H]1C=CC=C(C(=O)O)[C@@H]1O)C(=O)O
[2] = tested on: C=C(O[C@@H]1C=C(C(=O)O)C=C[C@H]1O)C(=O)O
[3] = tested on: C=C(O[C@@H]1C=C(C(=O)O)C=C[C@H]1O)C(=O)O; format: biochemical, Escherichia coli

| Substance | Km [1] [µM] | kcat/Km [1] [M⁻¹ s⁻¹] | Km [2] [µM] | Km [3] [µM] |
| --- | --- | --- | --- | --- |
| (Mycobacterium tuberculosis H37Rv) | 200 ± 30 | 4.4 ± 0.4 | 170 ± 16 |  |
| (Escherichia coli K-12) |  |  |  | 240 |
| (Pseudomonas aeruginosa PAO1) |  |  | 41 ± 5 |  |
